Target: T1, IFN regulatory factor 3 (mouse (endogenous in BMDMs)), P70671
T1 chain: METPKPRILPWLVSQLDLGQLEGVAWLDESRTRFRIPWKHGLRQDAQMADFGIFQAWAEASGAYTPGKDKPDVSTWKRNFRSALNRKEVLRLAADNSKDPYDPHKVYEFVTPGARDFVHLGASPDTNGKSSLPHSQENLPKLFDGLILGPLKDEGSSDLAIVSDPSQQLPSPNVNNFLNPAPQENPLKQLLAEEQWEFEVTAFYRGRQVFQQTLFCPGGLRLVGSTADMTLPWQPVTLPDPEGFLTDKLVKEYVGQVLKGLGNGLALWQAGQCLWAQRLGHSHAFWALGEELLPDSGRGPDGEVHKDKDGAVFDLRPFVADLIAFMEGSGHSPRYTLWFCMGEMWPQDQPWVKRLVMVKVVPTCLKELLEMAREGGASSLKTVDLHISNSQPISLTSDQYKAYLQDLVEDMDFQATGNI
Test: native gel or EMSA
Conditions: remark: other sources report otherwise

stoichiometry N: 2
B1: IFN regulatory factor 3, P70671 1-419 (natural protein)
chain: T1 chain
